Test results as given in patent US20210077575A1, “NANOPARTICLES FOR THE TARGETED DELIVERY OF THERAPEUTIC POLYPEPTIDES” (Cedars-Sinai Medical Center, priority 2018, published 2021).

Experiment: Nanoparticle size by dynamic light scattering (Example 2)
Format: physicochemical
Details: distribution by number; FIG. 2D-F, GeloninD10 series
Procedure: The composition comprising the HerPBK10-GFPD10 nanoparticles and the composition comprising the HerPBK10-GeloninD10 were then subjected to dynamic light scattering (DLS) to determine the diameter of the resulting nanoparticles. Solutions of GFPD10 (no HerPBK10), GeloninD10 (no HerPBK10) and HerPBK10 (no GFPD10 or GeloninD10) were also measured by DLS.

B1: GeloninD10: cytotoxic polypeptide gelonin with a C-terminal deca-aspartic acid tag (protein)
chain: GLDTVSFSTKGATYITYVNFLNELRVKLKPEGNSHGIPLLRKKCDDPGKCFVLVALSNDNGQLAEIAIDVTSVYVVGYQVRNRSYFFKDAPDAAYEGLFKNTIKTRLHFGGSYPSLEGEKAYRETTDLGIEPLRIGIKKLDENAIDNYKPTEIASSLLVVIQMVSEAARFTFIENQIRNNFQQRIRPANNTISLENKWGKLSFQIRTSGANGMFSEAVELERANGKKYYVTAVDQVKPKIALLKFVDKDPKDDDDDDDDDD
diameter / measured size (DLS): about 2.9 nm
